Binding result and EC50 data for four molecules are collected here from patent publication CN116554324A (SANYOU BIO INC, dated 2023).

One test has as its target T1, hu4-1BB-hFc (human, UniProt Q07011 24-186).
T1 construct: range 24-186; also called 4-1BB-Fc; not shown: human IgG1 Fc fragment fused at the C-terminus
The test can be described thus: ELISA.

The next test concerns the target T2, 生物素化的hu4-1BB-hFc (human, UniProt Q07011 24-186, EZ-Link Sulfo-NHS-LC-biotin label; the sites are not stated).
T2 construct: range 24-186; also called 生物素标记的hu4-1BB-hFc抗原蛋白; biotinylated hu4-1BB-hFc; not shown: human IgG1 Fc fragment fused at the C-terminus
Put plainly: ELISA.

Test [1] addresses T3, 人4-1BB (Uniprot编号Q07011), expressed on cells (human, UniProt Q07011 24-255).
T3 construct: whole, on cells; also called hu4-1BB-CHO; 人4-1BB过表达细胞
The test can be described thus: flow cytometry on hu4-1BB-CHO cells.

Another test addresses T4, hu4-1BB-His (human, UniProt Q07011 24-186).
T4 construct: range 24-186; Expressed in ExpiCHO and purified on Ni beads; also called 抗原蛋白hu4-1BB-His; 人4-1BB抗原蛋白; not shown: C-terminal His tag
The test can be described thus: ELISA, hu4-1BB-His coated at 2 μg/mL, anti-human IgG Fc-HRP.

The next test deals with T5, Mus4-1BB-hFc (mouse; human, UniProt P20334 24-187).
T5 construct: range 24-187; also called 鼠4-1BB抗原蛋白Mus4-1BB-hFc; not shown: Fc tag made by the same method as for hu4-1BB-hFc (human IgG1 Fc fragment)
T5 sequence (looked up): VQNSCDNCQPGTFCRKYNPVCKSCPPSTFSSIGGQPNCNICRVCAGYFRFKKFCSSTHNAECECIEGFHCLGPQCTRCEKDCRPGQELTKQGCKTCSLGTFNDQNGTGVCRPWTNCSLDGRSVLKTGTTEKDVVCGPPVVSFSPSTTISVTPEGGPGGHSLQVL
Put plainly: ELISA, Mus4-1BB-hFc coated at 2 μg/mL, anti-human kappa+lambda-HRP.

T3 sequence (Q07011 24-255): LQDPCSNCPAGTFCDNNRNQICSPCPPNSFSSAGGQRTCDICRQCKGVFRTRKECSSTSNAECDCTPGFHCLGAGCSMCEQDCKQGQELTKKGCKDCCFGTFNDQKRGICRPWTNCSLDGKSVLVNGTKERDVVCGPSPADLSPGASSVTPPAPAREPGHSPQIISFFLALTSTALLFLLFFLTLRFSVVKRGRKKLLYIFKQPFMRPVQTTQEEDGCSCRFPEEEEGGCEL

B1: Ag10058 (antibody, human IgG4 S228P, kappa, V domains shown)
VH: EVQLVESGGGLVQPGGSLRLSCAASGFSLSTSGVGVGWIRQAPGKGLEWLALIDWDDDKYYSPSLKSRLTISRDNSKNTLYLQLNSLRAEDTAVYYCARGGSDTVLGDWFAYWGQGTLVTVSS
VL: DIQLTQSPSSLSASVGDRVTITCRASQSVSPYLAWYQQKPGKAPKLLIYDASSLESGVPSRFSGSGSGTDFTLTISSLQPEDFATYYCQQGYSLWTFGQGTKVEIKR
notes: also called 阳性对照抗体Ag10058
As for B1, the binding result with hu4-1BB-hFc and in the test with 生物素化的hu4-1BB-hFc was “binds” each time.

B2: Ag10131 (antibody, human IgG4 S228P, kappa, V domains shown)
VH: EVQLVESGGGLVQPGGSLRLSCAASGFSLSTGGVGVGWIRQAPGKGLEWLALIDWADDKYYSPSLKSRLTISRDNSKNTLYLQLNSLRAEDTAVYYCARGGSDTVIGDWFAYWGQGTLVTVSS
VL: DIQLTQSPSSLSASVGDRVTITCRASQSIGSYLAWYQQKPGKAPKLLIYDASNLETGVPSRFSGSGSGTDFTLTISSLQPEDFATYYCQQGYYLWTFGQGTKVEIKR
notes: also called 阳性对照抗体Ag10131; 对照抗体Ag10131
On to B2, for which the binding result (in the test with hu4-1BB-hFc; with 生物素化的hu4-1BB-hFc; in test [1]; in the test with hu4-1BB-His) was “binds” each time.

B3: 99-2-35 (antibody, human IgG4 S228P, kappa, V domains shown)
VH: EVQLLESGGGLVQPGGSLRLSCAASGFTFSSYEMNWVRQAPGKGLEWVSYISSSGSTIYYADSVKGRFTISRDNAKNSLYLQMNSLRAEDTAVYYCARDFNGGYSYYPIAFDIWGQGTMVTVSS
VL: EIVLTQSPATLSLSPGERATLSCRASQSVSSYLAWYQQKPGQAPRLLIYDASNRATGIPARFSGSGSGTDFTLTISSLEPEDFAVYYCQQRSNWPPMYTFGQGTKLEIKR
notes: also called 抗体99-2-35; 母本抗体99-2-35
Molecule B3 showed an EC50 in the test with hu4-1BB-His of 0.35 µg/mL. The binding result in the test with Mus4-1BB-hFc is “binds”.

B4: 99-2-17 (antibody, human IgG4 S228P, lambda, V domains shown)
VH: QVQLVQSGGGLVQPGGSLRLSCSASGFTFSSYAMHWVRQAPGKGLEYVSAISSNGGSTYYADSVKGRFTISRDNSKNTLYLQMSSLRAEDTAVYYCVKGSGWSPIDAFDIWGQGTMVTVSS
VL: QSALTQPPSVSGAPGQRVTISCTGSSSNIGAGYDVHWYQQLPGTAPKLLIYGNSNRPSGVPDRFSGSKSGTSASLAITGLQAEDEADYYCQSYDSSLSGSGAVFGGGTQLTVLG
notes: also called 抗体99-2-17; 母本抗体99-2-17
In turn, B4 registered an EC50 with hu4-1BB-His of 0.411 µg/mL. In addition, the binding result with Mus4-1BB-hFc is on record as “binds”.
